From paper PMC6585716 (Biopolymers, 2017)
Non-standard residues stand in square brackets, D forms with d. No end group written: not given here. code X = not defined here

How the values were obtained:
Settings in all cases: both partners purified
[1] = molecular target: Recombinant human vascular endothelial growth factor (VEGF165) (human, UniProt P15692-4 1-191, X (detection label) on the N-terminus; disulfide bridge between the two cysteines cyclises …; C-terminal Tz4 (1,4-triazole formed of Az4 and D-propargylglycine) joins it to lfrew | all D-res); assay: not stated; titration giving EC50 ('relative affinities') of PCCs on VEGF, Figure 2A; experimental details in the Supporting Information
Sequence of Recombinant human vascular endothelial growth factor (VEGF165) (human, UniProt P15692-4 1-191, X (detection label) on the N-terminus; disulfide bridge between the two cysteines cyclises …; C-terminal Tz4 (1,4-triazole formed of Az4 and D-propargylglycine) joins it to lfrew | all D-res) (P15692 other isoform, or with tags, fused parts or gaps): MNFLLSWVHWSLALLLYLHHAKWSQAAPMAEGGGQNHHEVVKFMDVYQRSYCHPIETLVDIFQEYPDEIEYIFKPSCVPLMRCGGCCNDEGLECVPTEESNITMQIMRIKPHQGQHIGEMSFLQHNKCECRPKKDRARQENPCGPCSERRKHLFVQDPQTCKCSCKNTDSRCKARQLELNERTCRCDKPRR

[2] = molecular target: T1, Recombinant human vascular endothelial growth factor (VEGF165) (human, UniProt P15692-4 1-191, X (detection label) on the N-terminus); disulfide bridge between the two cysteines cyclises …; C-terminal Tz4 (1,4-triazole linker) joins it to lfrew | all D-residues (printed in lowercase: l); assay: inhibition assay; inhibition of VEGF binding to VEGFR2 in the presence of PCCs, Figure 2B; experimental details in the Supporting Information
T1 sequence (P15692 other isoform, or with tags, fused parts or gaps): as above

[3] = molecular target: T1, Recombinant human vascular endothelial …; assay: not stated; titration giving EC50 ('relative affinities') of PCCs on VEGF, Figure 2A; experimental details in the Supporting Information

B1: Bi-LV (X-VEPNCDIHVMWEWECFERL-Tz4-lfrew) (designed binder)
peptide 1: {code X}-VEPNCDIHVMWEWECFERL
peptide 2: [dL][dF][dR][dE][dW]
modifications: not fully specified; printed as X-VEPNCDIHVMWEWECFERL-Tz4-lfrew; cysteine pairing not given here; reading uncertain; also: chain 1 C-terminus joined to chain 2 N-terminus via Tz4
notes: also called anti-VEGF biligand PCC
[1]
  fold improvement in EC50 relative to AnchorV: 4.5 fold

B2: Tri-LV (X-VEPNCDIHVMWEWECFERL-Tz4-lfrew-Tz4-eeird) (designed binder)
peptide 1: {code X}-VEPNCDIHVMWEWECFERL
peptide 2: [dL][dF][dR][dE][dW]
peptide 3: [dE][dE][dI][dR][dD]
modifications: cysteine pairing not given here; reading uncertain; also: chains joined via Tz4 linkers, N-terminal X not defined, triazole to a chain's N/C-terminus, triazole to a chain's N/C-terminus, printed as X-VEPNCDIHVMWEWECFERL-Tz4-lfrew-Tz4-eeird
notes: also called consensus triligand; 64Cu-DOTA-Tri-LV (N-terminal DOTA conjugate, in vivo)
[2]
  IC50: 2.6 ± 0.5 nM

B3: Tetra-LV (X-VEPNCDIHVMWEWECFERL-Tz4-lfrew-Tz4-eeird-Tz4-qfkyr) (designed binder)
peptide 1: {code X}-VEPNCDIHVMWEWECFERL
peptide 2: [dL][dF][dR][dE][dW]
peptide 3: [dE][dE][dI][dR][dD]
peptide 4: [dQ][dF][dK][dY][dR]
modifications: cysteine pairing not given here; reading uncertain; also: chains joined via Tz4 linkers, N-terminal X not defined, triazole to a chain's N/C-terminus, triazole to a chain's N/C-terminus, triazole to a chain's N/C-terminus, printed as X-VEPNCDIHVMWEWECFERL-Tz4-lfrew-Tz4-eeird-Tz4-qfkyr
notes: also called tetraligand
[3]
  EC50: 6.1 ± 0.2 nM
[2]
  IC50: 0.74 ± 0.05 nM
